From article doi:10.1101/2021.12.04.471219 (bioRxiv, 2021)
Where no end group is shown, it is not given here.

Key:
Experiment in all cases: MST
[1] = target: MLLT4 PDZ domain (residues 961-1056) (human) (UniProt P55196)
[2] = target: T1, ZO-1 PDZ2 domain (residues 184-264) (human, UniProt Q07157 184-264)
T1 sequence: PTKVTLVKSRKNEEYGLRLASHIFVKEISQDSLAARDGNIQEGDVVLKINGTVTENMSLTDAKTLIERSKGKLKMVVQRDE

[3] = target: PARD3 PDZ3 domain (residues 582-685) (human, UniProt Q8TEW0 582-685)
[4] = target: T2, LNX2 PDZ2 domain (residues 334-426) (human, UniProt Q8N448 334-426)
T2 sequence: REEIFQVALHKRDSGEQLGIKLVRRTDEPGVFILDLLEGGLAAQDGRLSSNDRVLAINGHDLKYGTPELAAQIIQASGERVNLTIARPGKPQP

[5] = target: T3, MPP5 PDZ domain (residues 238-336) (human, UniProt Q8N3R9 238-336)
T3 sequence: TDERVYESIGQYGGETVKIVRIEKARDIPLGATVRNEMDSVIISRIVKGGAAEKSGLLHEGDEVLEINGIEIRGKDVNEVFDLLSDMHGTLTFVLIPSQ

PARD3 PDZ3 domain (residues 582-685), sequence (Q8TEW0 582-685): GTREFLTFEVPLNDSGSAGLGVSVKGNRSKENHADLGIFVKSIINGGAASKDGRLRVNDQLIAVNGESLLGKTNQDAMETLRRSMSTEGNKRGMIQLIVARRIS

NLNSSRVLDLLV (not fully specified) [C-terminal SARS-CoV-2-E PBM P71L mutant peptide (12-mer, beta variant B.1.351)]
Kd [1]: > 1000 µM | Kd [2]: 133 µM | Kd [3]: > 1000 µM | Kd [4]: 47 µM | binding result [5]: binds
